According to patent US20150037339A1 (Regeneron, published 2015):

Legend:
Activin A [1] = molecular target: T1, Activin A (human, UniProt P08476 311-426); test: Octet cross-competition; binder on anti-hFc tip; 50 nM hActivin A pre-bound with 1 uM H4H10429P (col 6); black box
T1 construct: Homodimer of two βA subunits; bought from R&D Systems (#338-AC); also called inhibin-βA dimer; human Activin A
T1 sequence: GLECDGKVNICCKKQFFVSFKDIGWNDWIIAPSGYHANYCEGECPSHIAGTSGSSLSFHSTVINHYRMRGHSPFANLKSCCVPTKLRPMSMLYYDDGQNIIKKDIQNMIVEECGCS
Description: (§1) No. 8,309,082) and Control 3 (MAB3381, available from R&D Systems, Inc., Minneapolis, Minn.) were also included in the assays. All assays were performed at 25° C. with a microtiter plate shaking rate of 1000 rpm in Octet HBST buffer (0.01 M HEPES pH7.4, 0.15M NaCl, 3 mM EDTA, 0.05% v/v Surfactant P20, 0.1 mg/mL BSA) according to manufacturer's instructions (ForteBio Corp., Menlo Park, Calif.). […] Any remaining anti-hFc binding sites on the tips were blocked by incubating the tips in a 50 ug/mL solution of irrelevant antibody for 5 minutes.

Activin A [2] = molecular target: T1, Activin A; test: Octet cross-competition; binder on anti-hFc tip; 50 nM hActivin A pre-bound with 1 uM H4H10423P (col 4); white box
Description: as §1

Activin A [3] = molecular target: T1, Activin A; test: Octet cross-competition; binder on anti-hFc tip; 50 nM hActivin A pre-bound with 1 uM H4H10430P (col 5); black box
Description: as §1

Activin A [4] = molecular target: T1, Activin A; test: SPR, captured mAb, 37C; no dissociation observed, kd fixed
Description: (§2) Antibody-antigen association was monitored for 240 seconds while dissociation in buffer was monitored for 600 seconds. Kinetic association and dissociation rate constants were determined by processing and fitting the data using Scrubber software version 2.0c. Binding equilibrium dissociation constants (KD) and dissociative half-lives (t_{1/2}) were then calculated from the kinetic rate constants as: KD (M)=kd/kₐ and t_{1/2} (min)=[ln 2/(60*kd)]. (NB=no binding observed under the conditions used; NT=not tested).

Activin A [5] = molecular target: T1, Activin A; test: SPR, captured mAb, 25C
Description: as §2

Activin B [6] = molecular target: T2, Activin B (human, UniProt P09529 293-407); test: SPR, captured mAb, 25C
T2 construct: Homodimer of two βB subunits; R&D Systems #659-AB
T2 chain: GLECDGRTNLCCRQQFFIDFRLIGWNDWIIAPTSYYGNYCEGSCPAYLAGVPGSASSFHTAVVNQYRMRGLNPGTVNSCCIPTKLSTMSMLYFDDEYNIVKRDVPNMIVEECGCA
Description: as §2

Activin A [7] = molecular target: T1, Activin A; test: Octet cross-competition; binder on anti-hFc tip; 50 nM hActivin A pre-bound with 1 uM Control 1 (col 10); black box
Description: as §1

Activin A [8] = molecular target: T1, Activin A; test: Octet cross-competition; binder on anti-hFc tip; 50 nM hActivin A pre-bound with 1 uM H4H10446P2 (col 1); white box
Description: as §1

Activin A [9] = molecular target: T1, Activin A; test: Octet cross-competition; binder on anti-hFc tip; 50 nM hActivin A pre-bound with 1 uM H4H10432P2 (col 7); black box
Description: as §1

Activin A [10] = molecular target: T1, Activin A; test: Octet cross-competition; binder on anti-hFc tip; 50 nM hActivin A pre-bound with 1 uM Control 3 (col 11); black box
Description: as §1

Activin A [11] = molecular target: T1, Activin A; test: Octet cross-competition; binder on anti-hFc tip; 50 nM hActivin A mixed with 1 uM Isotype control 13 (-) (col 13); dark grey box
Description: as §1

Activin A [12] = molecular target: T1, Activin A; test: Octet cross-competition; binder on anti-hFc tip; 50 nM hActivin A pre-bound with 1 uM H4H10442P2 (col 3); white box
Description: as §1

Activin A [13] = molecular target: T1, Activin A; test: SPR, captured mAb, 37C
Description: as §2

Activin B [14] = molecular target: T2, Activin B; test: SPR, captured mAb, 37C
Description: as §2

Activin A [15] = molecular target: T1, Activin A; test: Octet cross-competition; binder on anti-hFc tip; 50 nM hActivin A pre-bound with 1 uM H4H10468P2 (col 2); white box
Description: as §1

Activin A [16] = molecular target: T1, Activin A; test: Octet cross-competition; binder on anti-hFc tip; 50 nM hActivin A pre-bound with 1 uM H4H10440P2 (col 9); black box
Description: as §1

Activin A [17] = molecular target: T1, Activin A; test: Octet cross-competition; binder on anti-hFc tip; 50 nM hActivin A mixed with 1 uM Isotype control 12 (-) (col 12); dark grey box
Description: as §1

binding response (Activin A [1]): 0.36
binding response (Activin A [2]): 1.41
binding response (Activin A [3]): 0.28
koff (Activin A [4]): ≤ 5e-05 s⁻¹
Activin A-20 nM (RU) (Activin A [5]): 23.2 RU
Kd (Activin A [5]): 19 pM
koff (Activin A [5]): 0.000168 s⁻¹
kon (Activin A [5]): 8.85e+06 M⁻¹ s⁻¹
t1/2 (Activin A [5]): 68.7 min
50 nM Ag Bound (RU) (Activin B [6]): 32.8 RU
Kd (Activin B [6]): 55.4 pM
koff (Activin B [6]): 0.000528 s⁻¹
kon (Activin B [6]): 9.52e+06 M⁻¹ s⁻¹
t1/2 (Activin B [6]): 21.9 min
binding response (Activin A [7]): 0.16
binding response (Activin A [8]): 1.22
binding response (Activin A [9]): 0.23
binding response (Activin A [10]): -0.04
binding response (Activin A [11]): 0.14
binding response (Activin A [12]): 1.39
Activin A-20 nM (RU) (Activin A [13]): 29.4 RU
Kd (Activin A [13]): ≤ 3.35 pM
kon (Activin A [13]): 1.49e+07 M⁻¹ s⁻¹
t1/2 (Activin A [13]): ≥ 231 min
50 nM Ag Bound (RU) (Activin B [14]): 38.1 RU
Kd (Activin B [14]): 139 pM
koff (Activin B [14]): 0.00136 s⁻¹
kon (Activin B [14]): 9.78e+06 M⁻¹ s⁻¹
t1/2 (Activin B [14]): 8.5 min
binding response (Activin A [15]): 1.32
binding response (Activin A [16]): 0.27
binding response (Activin A [17]): 0.28
B1: H4H10436P2 (antibody, human IgG4, V domains shown)
VH: QVQLVESGGGVVQPGRSLRLTCVASGFTVSSYGMHWVRQAPGKGLEWVAVMFYDESKKYYADSVKGRFTISRDNSKNTLYLQMNSLRVEDTAVYYCARDEQLDFEYWGQGTLVTVSS
VL: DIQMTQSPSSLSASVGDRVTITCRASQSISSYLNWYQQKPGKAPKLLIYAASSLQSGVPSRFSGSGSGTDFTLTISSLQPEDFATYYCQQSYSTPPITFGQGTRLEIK
